Experimental data as given in article PMC6197226 (2018).

How the values were obtained:
[1] = biological target: p62 ZZ domain (aa 115-190) (human, UniProt Q13501 115-190); assay: MST
[2] = biological target: p62 ZZ domain (aa 120-171) (human, UniProt Q13501 120-171)

B1: REEE peptide (peptide)
peptide: REEE
Kd [1]: 1.9 µM
Kd [2]: 5.6 µM

B2: RAEE peptide (peptide)
peptide: RAEE
Kd [1]: 3.2 µM
Kd [2]: 14 µM
